Measured values: US10562947B2, “Compositions and methods for preventing or treating diseases, conditions or processes characterized by aberrant fibroblast proliferation and extracellular matrix deposition” (MOERAE MATRIX, INC., priority 2011, dated 2020)

Tests used:
Assay in all cases: Kinase Profiling Assay
Assay type in all cases: biochemical
Conditions in all cases: 100 μM peptide
[1] = biological target: T1, BrSK1(h) (Homo sapiens, UniProt Q8TDC3)
T1 sequence (Q8TDC3 1-778): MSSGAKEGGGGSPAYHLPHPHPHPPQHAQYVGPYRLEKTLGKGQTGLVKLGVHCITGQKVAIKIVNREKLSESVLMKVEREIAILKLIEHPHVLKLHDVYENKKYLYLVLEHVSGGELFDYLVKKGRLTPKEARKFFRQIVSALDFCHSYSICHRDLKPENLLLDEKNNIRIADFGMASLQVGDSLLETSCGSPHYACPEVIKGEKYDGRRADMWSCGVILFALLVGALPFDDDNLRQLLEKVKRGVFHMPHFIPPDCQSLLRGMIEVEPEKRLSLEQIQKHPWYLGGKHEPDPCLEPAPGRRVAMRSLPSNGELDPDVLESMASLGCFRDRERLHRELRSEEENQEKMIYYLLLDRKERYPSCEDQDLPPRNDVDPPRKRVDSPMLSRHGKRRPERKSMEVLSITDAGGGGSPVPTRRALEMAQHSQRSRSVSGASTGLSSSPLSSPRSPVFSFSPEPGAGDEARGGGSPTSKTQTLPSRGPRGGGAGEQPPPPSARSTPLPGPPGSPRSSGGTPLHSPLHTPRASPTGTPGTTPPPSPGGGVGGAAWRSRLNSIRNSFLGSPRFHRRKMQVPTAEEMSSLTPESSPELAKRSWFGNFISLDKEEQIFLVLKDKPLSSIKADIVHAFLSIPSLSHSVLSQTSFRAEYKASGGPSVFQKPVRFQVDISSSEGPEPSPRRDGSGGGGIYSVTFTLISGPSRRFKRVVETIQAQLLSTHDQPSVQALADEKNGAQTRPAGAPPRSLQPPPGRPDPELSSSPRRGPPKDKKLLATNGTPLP
In short: (§1)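 Duplicate activity readings per kinase; peptide inhibitors of MK2 profiled against 266 human kinases for selectivity.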

[2] = biological target: CDK3/cyclinE(h) (Homo sapiens, UniProt Q00526)
In short: as §1

[3] = biological target: LOK(h) (Homo sapiens, UniProt O94804)
In short: as §1

[4] = biological target: PDGFRα(h) (Homo sapiens, UniProt P16234)
In short: as §1

[5] = biological target: PKCδ(h) (Homo sapiens, UniProt Q05655)
In short: as §1

[6] = biological target: T2, PKCζ(h) (Homo sapiens, UniProt Q05513)
T2 construct: purchased Millipore (IC50 Profiler Express service)
T2 sequence (Q05513 1-592): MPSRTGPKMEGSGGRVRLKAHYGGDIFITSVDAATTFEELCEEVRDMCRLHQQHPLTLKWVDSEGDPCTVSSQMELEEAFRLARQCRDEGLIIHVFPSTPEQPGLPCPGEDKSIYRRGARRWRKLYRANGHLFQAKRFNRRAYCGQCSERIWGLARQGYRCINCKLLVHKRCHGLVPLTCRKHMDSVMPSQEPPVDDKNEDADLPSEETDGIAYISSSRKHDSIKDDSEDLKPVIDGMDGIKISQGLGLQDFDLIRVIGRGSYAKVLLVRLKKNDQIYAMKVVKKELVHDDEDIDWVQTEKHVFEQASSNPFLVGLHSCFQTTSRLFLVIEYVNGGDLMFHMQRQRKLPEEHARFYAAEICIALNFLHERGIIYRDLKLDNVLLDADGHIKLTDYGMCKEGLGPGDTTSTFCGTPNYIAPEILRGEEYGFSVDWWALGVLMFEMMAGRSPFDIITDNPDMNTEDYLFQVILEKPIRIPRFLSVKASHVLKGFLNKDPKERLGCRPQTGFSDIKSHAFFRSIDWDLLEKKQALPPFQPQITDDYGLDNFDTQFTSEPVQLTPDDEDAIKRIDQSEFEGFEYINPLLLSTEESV
In short: as §1

[7] = biological target: T3, PKCι(h) (Homo sapiens, UniProt P41743)
T3 construct: purchased Millipore (IC50 Profiler Express service)
T3 sequence (P41743 1-596): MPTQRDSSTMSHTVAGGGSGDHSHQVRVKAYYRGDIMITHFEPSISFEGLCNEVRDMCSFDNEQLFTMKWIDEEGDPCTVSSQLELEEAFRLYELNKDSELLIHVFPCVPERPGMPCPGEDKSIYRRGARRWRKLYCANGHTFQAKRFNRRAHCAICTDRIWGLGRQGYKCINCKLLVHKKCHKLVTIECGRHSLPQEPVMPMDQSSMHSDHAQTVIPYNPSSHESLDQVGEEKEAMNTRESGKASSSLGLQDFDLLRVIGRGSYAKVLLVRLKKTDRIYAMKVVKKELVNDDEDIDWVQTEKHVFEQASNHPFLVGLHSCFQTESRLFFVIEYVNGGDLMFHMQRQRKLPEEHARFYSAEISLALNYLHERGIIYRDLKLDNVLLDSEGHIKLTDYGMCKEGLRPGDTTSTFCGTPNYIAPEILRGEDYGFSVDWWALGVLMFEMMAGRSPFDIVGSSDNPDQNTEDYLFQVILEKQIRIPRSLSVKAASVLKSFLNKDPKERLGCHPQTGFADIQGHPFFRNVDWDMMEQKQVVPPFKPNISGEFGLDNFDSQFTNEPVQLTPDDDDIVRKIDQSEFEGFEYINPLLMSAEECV
In short: as §1

[8] = biological target: T4, TAK1(h) (Homo sapiens, UniProt O43318)
T4 sequence (O43318 1-303 limits assumed): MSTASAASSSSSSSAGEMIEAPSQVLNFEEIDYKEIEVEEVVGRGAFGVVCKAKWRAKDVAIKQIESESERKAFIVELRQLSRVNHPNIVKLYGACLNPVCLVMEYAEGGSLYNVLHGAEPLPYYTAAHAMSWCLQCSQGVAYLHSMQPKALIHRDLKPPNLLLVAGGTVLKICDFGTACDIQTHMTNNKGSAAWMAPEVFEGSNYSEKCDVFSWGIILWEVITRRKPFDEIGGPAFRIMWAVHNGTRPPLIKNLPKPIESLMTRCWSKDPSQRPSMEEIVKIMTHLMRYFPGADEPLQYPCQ
In short: as §1

[9] = biological target: eEF-2K(h) (Homo sapiens, UniProt O00418)
In short: as §1

[10] = biological target: EGFR(L858R)(h) (Homo sapiens, UniProt P00533, L858R)
In short: as §1

Sequence of CDK3/cyclinE(h) (Q00526 whole entry): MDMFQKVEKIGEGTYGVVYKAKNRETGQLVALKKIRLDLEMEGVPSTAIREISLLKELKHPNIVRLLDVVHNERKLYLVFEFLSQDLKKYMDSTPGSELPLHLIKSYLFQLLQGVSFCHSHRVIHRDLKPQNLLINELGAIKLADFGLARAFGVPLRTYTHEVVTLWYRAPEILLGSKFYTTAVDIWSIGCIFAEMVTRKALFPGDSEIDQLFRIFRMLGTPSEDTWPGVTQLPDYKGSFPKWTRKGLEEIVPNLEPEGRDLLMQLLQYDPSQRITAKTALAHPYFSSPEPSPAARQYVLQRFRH
Sequence of CDK3/cyclinE(h) (P24864 whole entry partner): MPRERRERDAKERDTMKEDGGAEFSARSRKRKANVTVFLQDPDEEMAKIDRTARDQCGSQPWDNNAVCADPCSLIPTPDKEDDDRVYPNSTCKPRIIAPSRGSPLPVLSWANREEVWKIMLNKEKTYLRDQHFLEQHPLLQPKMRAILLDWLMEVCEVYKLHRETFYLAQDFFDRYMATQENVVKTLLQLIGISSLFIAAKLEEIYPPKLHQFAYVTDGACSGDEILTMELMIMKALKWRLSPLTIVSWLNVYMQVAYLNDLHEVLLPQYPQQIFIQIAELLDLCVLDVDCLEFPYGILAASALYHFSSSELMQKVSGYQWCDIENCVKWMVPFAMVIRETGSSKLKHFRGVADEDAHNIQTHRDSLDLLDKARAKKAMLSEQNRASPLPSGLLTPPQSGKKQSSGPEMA
Sequence of PKCδ(h) (Q05655 whole entry): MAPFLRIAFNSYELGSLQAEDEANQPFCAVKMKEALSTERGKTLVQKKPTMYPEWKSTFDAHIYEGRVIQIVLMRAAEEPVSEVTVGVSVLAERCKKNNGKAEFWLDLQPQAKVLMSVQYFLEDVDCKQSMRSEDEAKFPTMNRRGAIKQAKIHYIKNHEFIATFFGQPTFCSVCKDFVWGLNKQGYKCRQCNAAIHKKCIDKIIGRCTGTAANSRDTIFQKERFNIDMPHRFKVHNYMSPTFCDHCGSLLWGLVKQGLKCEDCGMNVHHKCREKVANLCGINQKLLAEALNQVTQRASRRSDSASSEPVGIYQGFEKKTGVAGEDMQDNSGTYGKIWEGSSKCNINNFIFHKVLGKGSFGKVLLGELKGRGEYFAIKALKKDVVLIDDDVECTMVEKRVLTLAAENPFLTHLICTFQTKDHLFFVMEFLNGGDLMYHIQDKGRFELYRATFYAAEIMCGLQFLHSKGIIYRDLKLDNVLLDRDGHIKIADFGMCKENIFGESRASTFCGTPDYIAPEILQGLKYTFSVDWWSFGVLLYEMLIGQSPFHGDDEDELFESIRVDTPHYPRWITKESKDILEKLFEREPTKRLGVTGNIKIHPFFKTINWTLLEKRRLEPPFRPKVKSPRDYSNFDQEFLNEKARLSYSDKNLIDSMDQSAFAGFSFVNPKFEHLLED
Sequence of LOK(h) (O94804 whole entry): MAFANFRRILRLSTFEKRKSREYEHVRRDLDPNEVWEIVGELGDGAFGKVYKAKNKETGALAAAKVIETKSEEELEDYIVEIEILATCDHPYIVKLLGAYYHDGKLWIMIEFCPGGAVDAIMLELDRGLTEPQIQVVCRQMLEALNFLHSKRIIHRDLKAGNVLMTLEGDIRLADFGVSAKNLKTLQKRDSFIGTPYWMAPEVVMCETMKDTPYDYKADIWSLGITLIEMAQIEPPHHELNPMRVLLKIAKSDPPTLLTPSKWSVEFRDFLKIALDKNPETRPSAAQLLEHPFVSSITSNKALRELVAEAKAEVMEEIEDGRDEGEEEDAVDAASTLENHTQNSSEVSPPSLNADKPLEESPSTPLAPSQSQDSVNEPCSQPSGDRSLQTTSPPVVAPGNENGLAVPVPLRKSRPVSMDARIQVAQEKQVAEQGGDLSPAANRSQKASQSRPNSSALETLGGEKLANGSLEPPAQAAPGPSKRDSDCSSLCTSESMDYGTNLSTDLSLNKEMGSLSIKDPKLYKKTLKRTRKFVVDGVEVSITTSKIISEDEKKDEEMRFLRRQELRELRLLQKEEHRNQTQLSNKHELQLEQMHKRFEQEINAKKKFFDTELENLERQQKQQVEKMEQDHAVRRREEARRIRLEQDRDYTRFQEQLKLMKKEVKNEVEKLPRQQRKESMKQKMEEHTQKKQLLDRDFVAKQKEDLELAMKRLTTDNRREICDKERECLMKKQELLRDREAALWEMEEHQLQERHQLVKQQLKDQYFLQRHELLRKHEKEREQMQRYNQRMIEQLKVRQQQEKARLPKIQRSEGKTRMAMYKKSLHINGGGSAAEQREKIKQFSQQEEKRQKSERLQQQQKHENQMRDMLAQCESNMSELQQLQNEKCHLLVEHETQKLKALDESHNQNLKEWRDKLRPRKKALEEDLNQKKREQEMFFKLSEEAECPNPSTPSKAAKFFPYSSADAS
Sequence of PDGFRα(h) (P16234 24-1089): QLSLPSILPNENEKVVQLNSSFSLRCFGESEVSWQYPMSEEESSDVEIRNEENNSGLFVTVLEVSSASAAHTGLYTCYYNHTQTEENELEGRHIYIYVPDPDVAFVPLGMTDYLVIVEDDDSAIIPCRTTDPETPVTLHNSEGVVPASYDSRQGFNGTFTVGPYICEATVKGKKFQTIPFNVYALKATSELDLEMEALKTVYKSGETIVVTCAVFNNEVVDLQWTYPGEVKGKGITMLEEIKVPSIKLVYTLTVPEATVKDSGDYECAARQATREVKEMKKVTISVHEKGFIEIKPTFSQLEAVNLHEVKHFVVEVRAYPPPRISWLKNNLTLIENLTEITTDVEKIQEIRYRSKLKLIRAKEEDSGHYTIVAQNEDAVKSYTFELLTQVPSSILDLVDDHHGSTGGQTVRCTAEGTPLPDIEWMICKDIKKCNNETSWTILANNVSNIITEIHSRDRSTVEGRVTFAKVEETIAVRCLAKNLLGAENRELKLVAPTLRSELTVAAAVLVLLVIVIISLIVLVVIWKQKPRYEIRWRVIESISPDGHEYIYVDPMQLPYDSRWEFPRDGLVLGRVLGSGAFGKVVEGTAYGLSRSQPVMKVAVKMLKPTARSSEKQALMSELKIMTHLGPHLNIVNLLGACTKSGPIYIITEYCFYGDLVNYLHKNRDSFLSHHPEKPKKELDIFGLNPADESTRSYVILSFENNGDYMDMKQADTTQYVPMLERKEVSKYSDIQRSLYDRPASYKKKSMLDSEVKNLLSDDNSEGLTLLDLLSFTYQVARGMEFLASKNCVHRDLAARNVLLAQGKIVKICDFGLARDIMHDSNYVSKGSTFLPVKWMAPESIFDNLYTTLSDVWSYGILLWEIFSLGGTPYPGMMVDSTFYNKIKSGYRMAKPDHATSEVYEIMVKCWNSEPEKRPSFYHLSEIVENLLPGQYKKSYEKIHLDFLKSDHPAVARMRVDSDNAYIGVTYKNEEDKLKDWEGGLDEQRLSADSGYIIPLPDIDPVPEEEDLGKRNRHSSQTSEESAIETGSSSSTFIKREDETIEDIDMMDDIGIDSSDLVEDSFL

Row | Sequence | BrSK1(h) % activity [1] [%] | CDK3/cyclinE(h) % activity [2] [%] | LOK(h) % activity [3] [%] | PDGFRα(h) % activity [4] [%] | PKCδ(h) % activity [5] [%] | PKCζ(h) % activity [6] [%] | PKCι(h) % activity [7] [%] | TAK1(h) % activity [8] [%] | eEF-2K(h) % activity [9] [%] | EGFR(L858R)(h) % activity [10] [%]
1 | FAKLAARLYRKALARQLGVAA [MMI-0300] | 67 | 94 | 37 | 65 | 101 | 81 | 68 | 122 | 91 | –
2 | HRRIKAWLKKIKALARQLGVAA (Mammalian) [MMI-0500] | 72 | 8 | 7 | 40 | 61 | 7 | 7 | – | 43 | 26
3 | KAFAKLAARLYRKALARQLGVAA [MMI-0400] | 76 | 92 | 18 | 40 | 90 | 75 | 46 | 177 | 43 | 52
4 | YARAAARQARAKALNRQLGVA (Mammalian) [MMI-0200] | 93 | – | 67 | 108 | 101 | 98 | 97 | 124 | – | 120
